Source: paper doi:10.1101/2021.11.20.466133

Biological target: T1, MsDisA (Mycobacterium smegmatis mc2155, UniProt A0R564 1-372)
T1 sequence: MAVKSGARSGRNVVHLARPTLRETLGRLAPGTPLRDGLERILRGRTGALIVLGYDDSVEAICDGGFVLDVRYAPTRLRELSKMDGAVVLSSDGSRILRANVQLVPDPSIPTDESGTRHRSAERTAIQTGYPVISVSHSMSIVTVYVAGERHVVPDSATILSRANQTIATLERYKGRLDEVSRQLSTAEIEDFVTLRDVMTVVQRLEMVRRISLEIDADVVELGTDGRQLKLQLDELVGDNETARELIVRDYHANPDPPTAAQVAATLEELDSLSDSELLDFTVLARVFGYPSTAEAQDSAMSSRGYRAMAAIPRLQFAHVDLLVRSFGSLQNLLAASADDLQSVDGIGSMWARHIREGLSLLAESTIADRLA
Assay: EMSA

B1: dsDNA 50mer (dsDNA)
DNA 1: GGATACGTAACAACGCTTATGCATCGCCGCCGCTACATCCCTGAGCTGAC
DNA 2: GTCAGCTCAGGGATGTAGCGGCGGCGATGCATAAGCGTTGTTACGTATCC
B1: no binding.

B2: HLDNA (synthetic Holliday junction) (structured_DNA)
DNA 1: ATCGATAGTCTCTAGACAGCATGTCCTAGCAAGCCAGAATTCGGCAGCGT
DNA 2: GACGCTGCCGAATTCTGGCTTGCTAGGACATTCTTTGCCCACGTTGACCC
DNA 3: GGGTCAACGTGGCAAAGAATGTCCTACGTCCGATACGGATAATCGCCAT
DNA 4: ATGGCGATTATCCGTATCGGACGTCGGACATGCTGTCTAGAGACTATCGA
B2: no binding.
